According to the supplement of paper PMC10126150:
± gives the standard deviation of the averaged measurements.

Test system: ATP
Experiment: switch fluorescence ratio, 500 uM ATP over buffer (Cy3 cluster intensity, sum of 5 cycles each) (fold (ratio)); higher = stronger signal-on switching upon ATP binding; sequences stand for … in TCGTCGGCAGCGTCAGATGTGTATAAGAGACAGTTTTTTTTTTTTTTTTTTTTTTTTT…TC
Conditions: aptamer strand: ATP DNA aptamer (quencher-CACCTGGGGGAGTATTGCGGAGGAAGG + anchor), 100 nM annealed; ATP concentration: 500 uM
In short: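 Between each of five buffer/ATP cycles, the flow-cell was stripped with NaOH and re-annealed. Each cycle imaged Cy3-labelled switching-strand clusters, annealed to 100 nM quencher-labelled ATP aptamer on a modified Illumina MiSeq flow-cell, first in selection buffer and then after 15 min with 500 uM ATP at 22 °C. The fluorescence ratio is summed target-cycle over summed buffer-cycle Cy3 intensity per cluster, averaged per switch-domain sequence, with clusters outside 100-1000 RFU excluded.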
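Further: ATP exposure 15 min at 22 °C before imaging.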

AAGGGATTGT
switch fluorescence ratio: 1.18 ± 0.26

AAGGGCAGAA
switch fluorescence ratio: 0.973 ± 0.03

AAGGGCAGTA
switch fluorescence ratio: 0.998 ± 0.01

AAGGGCGGAT
switch fluorescence ratio: 1.02 ± 0.021

AAGGGCGGGA
switch fluorescence ratio: 1.02 ± 0.086

AAGGGCTAGG
switch fluorescence ratio: 0.999 ± 0.014

AAGGGCTCTG
switch fluorescence ratio: 1.01 ± 0.046

AAGGGCTGGT
switch fluorescence ratio: 0.99 ± 0.022

AAGGGGAAAA
switch fluorescence ratio: 0.983 ± 0.02

AAGGGGAAGG
switch fluorescence ratio: 0.996 ± 0.012

AAGGGGAATA
switch fluorescence ratio: 1.01 ± 0.035

AAGGGGAGGA
switch fluorescence ratio: 0.989 ± 0.016

AAGGGGAGGC
switch fluorescence ratio: 0.971 ± 0.041

AAGGGGATAT
switch fluorescence ratio: 1.03 ± 0.044

AAGGGGATTG
switch fluorescence ratio: 0.986 ± 0.042

AAGGGGCAGC
switch fluorescence ratio: 0.9903 ± 0.0069

AAGGGGCCCC
switch fluorescence ratio: 1.31 ± 0.49

AAGGGGCCGG
switch fluorescence ratio: 1.0099 ± 8.3e-05

AAGGGGCGCA
switch fluorescence ratio: 0.969 ± 0.045

AAGGGGGATC
switch fluorescence ratio: 1 ± 0.032

AAGGGGGCCC
switch fluorescence ratio: 0.99 ± 0.021

AAGGGGGCGA
switch fluorescence ratio: 0.982 ± 0.019

AAGGGGGGAT
switch fluorescence ratio: 0.974 ± 0.02

AAGGGGGGCC
switch fluorescence ratio: 1.01 ± 0.089

AAGGGGGGTT
switch fluorescence ratio: 1.01 ± 0.036

AAGGGGGTAC
switch fluorescence ratio: 1.38 ± 0.77

AAGGGGGTAG
switch fluorescence ratio: 1.01 ± 0.032

AAGGGGGTTG
switch fluorescence ratio: 0.975 ± 0.044

AAGGGGTAAT
switch fluorescence ratio: 0.967 ± 0.045

AAGGGGTCCA
switch fluorescence ratio: 0.991 ± 0.029

AAGGGGTCTA
switch fluorescence ratio: 1.002 ± 0.0085

AAGGGGTGGT
switch fluorescence ratio: 0.989 ± 0.032

AAGGGGTGTA
switch fluorescence ratio: 0.985 ± 0.04

AAGGGTATCC
switch fluorescence ratio: 1.02 ± 0.013

AAGGGTCGCG
switch fluorescence ratio: 1.02 ± 0.055

AAGGGTGTGT
switch fluorescence ratio: 0.961 ± 0.032

AAGGGTGTTT
switch fluorescence ratio: 1.01 ± 0.034

AAGGGTTACG
switch fluorescence ratio: 1 ± 0.025

AAGGGTTGGG
switch fluorescence ratio: 1.06 ± 0.058

AAGGTAAGGG
switch fluorescence ratio: 1.01 ± 0.041

AAGGTACGAA
switch fluorescence ratio: 1.04 ± 0.011

AAGGTATCAT
switch fluorescence ratio: 0.978 ± 0.018

AAGGTATCGG
switch fluorescence ratio: 0.987 ± 0.037

AAGGTATGCT
switch fluorescence ratio: 0.982 ± 0.019

AAGGTATTAA
switch fluorescence ratio: 1 ± 0.036

AAGGTATTGC
switch fluorescence ratio: 0.9947 ± 0.0061

AAGGTCGGTA
switch fluorescence ratio: 1.001 ± 0.0024

AAGGTCGTCG
switch fluorescence ratio: 0.9834 ± 0.0076

AAGGTGAATC
switch fluorescence ratio: 1.04 ± 0.019

AAGGTGGCCC
switch fluorescence ratio: 1.03 ± 0.023

AAGGTGTGCC
switch fluorescence ratio: 1.01 ± 0.03

AAGGTTAGTT
switch fluorescence ratio: 1.003 ± 0.0083

AAGGTTATGT
switch fluorescence ratio: 0.991 ± 0.02

AAGGTTATTA
switch fluorescence ratio: 1 ± 0.023

AAGGTTGCGA
switch fluorescence ratio: 0.9571 ± 0.0024

AAGGTTGGGG
switch fluorescence ratio: 0.994 ± 0.017

AAGGTTTAAG
switch fluorescence ratio: 0.999 ± 0.011

AAGGTTTCAG
switch fluorescence ratio: 0.9758 ± 0.0079

AAGGTTTTTC
switch fluorescence ratio: 1.01 ± 0.015

AAGTAAGTGG
switch fluorescence ratio: 1.03 ± 0.042

AAGTAATAGG
switch fluorescence ratio: 1.03 ± 0.019

AAGTAATTTC
switch fluorescence ratio: 1.02 ± 0.013

AAGTACGGAG
switch fluorescence ratio: 1.04 ± 0.052

AAGTACGTTG
switch fluorescence ratio: 1.12 ± 0.057

AAGTAGGAGC
switch fluorescence ratio: 1.06 ± 0.19

AAGTAGGCTC
switch fluorescence ratio: 0.991 ± 0.007

AAGTAGGGGG
switch fluorescence ratio: 0.951 ± 0.016

AAGTAGTAGT
switch fluorescence ratio: 1.007 ± 0.0043

AAGTAGTCGA
switch fluorescence ratio: 0.9838 ± 0.0041

AAGTAGTTAC
switch fluorescence ratio: 1.05 ± 0.042

AAGTATAGCA
switch fluorescence ratio: 1.03 ± 0.014

AAGTATAGTT
switch fluorescence ratio: 1.04 ± 0.056

AAGTATCCGT
switch fluorescence ratio: 0.986 ± 0.048

AAGTATGTAT
switch fluorescence ratio: 1.02 ± 0.041

AAGTATTATC
switch fluorescence ratio: 1.01 ± 0.019

AAGTCAATGT
switch fluorescence ratio: 1.015 ± 0.0027

AAGTCACATC
switch fluorescence ratio: 1.22 ± 0.19

AAGTCAGGAG
switch fluorescence ratio: 1.05 ± 0.07

AAGTCCCGCT
switch fluorescence ratio: 1.12 ± 0.17

AAGTCGGCTG
switch fluorescence ratio: 0.9757 ± 0.002

AAGTCGGTTA
switch fluorescence ratio: 1 ± 0.02

AAGTCTTGTT
switch fluorescence ratio: 0.97636 ± 0.00051

AAGTCTTTTC
switch fluorescence ratio: 0.975 ± 0.036

AAGTGAAAGC
switch fluorescence ratio: 1.01 ± 0.068

AAGTGAAGCT
switch fluorescence ratio: 1 ± 0.015

AAGTGAGTAG
switch fluorescence ratio: 1.004 ± 0.01

AAGTGATTGG
switch fluorescence ratio: 0.973 ± 0.011

AAGTGCAAAC
switch fluorescence ratio: 1.53 ± 0.73

AAGTGCCCCA
switch fluorescence ratio: 1.05 ± 0.016

AAGTGCGGCC
switch fluorescence ratio: 0.987 ± 0.011

AAGTGGGCCT
switch fluorescence ratio: 0.981 ± 0.038

AAGTGGGGCG
switch fluorescence ratio: 1.02 ± 0.034

AAGTGGGGGG
switch fluorescence ratio: 1 ± 0.024

AAGTGTATCA
switch fluorescence ratio: 0.983 ± 0.02

AAGTGTGCGA
switch fluorescence ratio: 0.997 ± 0.028

AAGTGTTTTA
switch fluorescence ratio: 1.001 ± 0.0045

AAGTTAAAAT
switch fluorescence ratio: 1.012 ± 0.0074

AAGTTAACTT
switch fluorescence ratio: 0.9883 ± 0.0087

AAGTTAATGT
switch fluorescence ratio: 1 ± 0.022

AAGTTAGGGG
switch fluorescence ratio: 0.9756 ± 0.0084

AAGTTCAGTT
switch fluorescence ratio: 1.01 ± 0.016

AAGTTCGAGA
switch fluorescence ratio: 1.002 ± 0.0016

AAGTTCGGGG
switch fluorescence ratio: 1.05 ± 0.088

AAGTTCGTGC
switch fluorescence ratio: 1.02 ± 0.058

AAGTTGAATT
switch fluorescence ratio: 0.99 ± 0.029

AAGTTGAGGG
switch fluorescence ratio: 0.975 ± 0.035

AAGTTGCGCT
switch fluorescence ratio: 1 ± 0.034

AAGTTGCGGG
switch fluorescence ratio: 0.964 ± 0.078

AAGTTGCGTT
switch fluorescence ratio: 1.01 ± 0.015

AAGTTGCTGG
switch fluorescence ratio: 0.985 ± 0.019

AAGTTGGATG
switch fluorescence ratio: 0.977 ± 0.019

AAGTTGGGGA
switch fluorescence ratio: 0.996 ± 0.021

AAGTTGTCCG
switch fluorescence ratio: 0.964 ± 0.0091

AAGTTGTCTT
switch fluorescence ratio: 0.999 ± 0.027

AAGTTGTGAA
switch fluorescence ratio: 1.01 ± 0.017

AAGTTGTGTA
switch fluorescence ratio: 0.993 ± 0.031

AAGTTTAATA
switch fluorescence ratio: 0.943 ± 0.034

AAGTTTACAT
switch fluorescence ratio: 1.01 ± 0.026

AAGTTTATGG
switch fluorescence ratio: 0.9798 ± 0.0057

AAGTTTCGCG
switch fluorescence ratio: 0.976 ± 0.027

AAGTTTGACC
switch fluorescence ratio: 0.978 ± 0.032

AAGTTTGTCA
switch fluorescence ratio: 0.955 ± 0.017

AAGTTTGTGG
switch fluorescence ratio: 0.973 ± 0.047

AAGTTTTCCG
switch fluorescence ratio: 0.964 ± 0.062

AAGTTTTGGC
switch fluorescence ratio: 1 ± 0.035

AAGTTTTGGG
switch fluorescence ratio: 0.974 ± 0.02

AAGTTTTTGG
switch fluorescence ratio: 1.01 ± 0.03

AATAAAATTT
switch fluorescence ratio: 1.04 ± 0.022

AATAAACAAA
switch fluorescence ratio: 0.978 ± 0.013

AATAAAGGGT
switch fluorescence ratio: 1.02 ± 0.027

AATAAGATGT
switch fluorescence ratio: 0.999 ± 0.066

AATAAGCTGG
switch fluorescence ratio: 0.984 ± 0.033

AATAAGGT
switch fluorescence ratio: 1.003 ± 0.0056

AATAATAAAC
switch fluorescence ratio: 1.006 ± 0.0047

AATAATCTTT
switch fluorescence ratio: 1.02 ± 0.013

AATAATGGAA
switch fluorescence ratio: 0.987 ± 0.015

AATAATGGTT
switch fluorescence ratio: 1.01 ± 0.013

AATAATGTTC
switch fluorescence ratio: 0.9805 ± 0.0071

AATAATTAAA
switch fluorescence ratio: 0.9861 ± 0.0097

AATACCCGGG
switch fluorescence ratio: 1.021 ± 0.0045

AATACGGTCT
switch fluorescence ratio: 1 ± 0.06

AATACTACAG
switch fluorescence ratio: 1.08 ± 0.024

AATACTCACG
switch fluorescence ratio: 1.5 ± 0.058

AATACTGTGC
switch fluorescence ratio: 0.947 ± 0.064

AATAGAATAC
switch fluorescence ratio: 1.163 ± 0.0021

AATAGAGGAG
switch fluorescence ratio: 1.012 ± 0.007

AATAGATAGT
switch fluorescence ratio: 0.9929 ± 0.0055

AATAGATTGC
switch fluorescence ratio: 1.003 ± 0.0092

AATAGGGGAA
switch fluorescence ratio: 1.01 ± 0.042

AATAGGGGAC
switch fluorescence ratio: 1.01 ± 0.016

AATAGGGGTT
switch fluorescence ratio: 0.984 ± 0.03

AATAGTAAAT
switch fluorescence ratio: 0.999 ± 0.012

AATAGTAGCG
switch fluorescence ratio: 1.01 ± 0.054

AATAGTATCT
switch fluorescence ratio: 1.01 ± 0.029

AATAGTGACG
switch fluorescence ratio: 1.14 ± 0.28

AATAGTTTG
switch fluorescence ratio: 1.01 ± 0.017

AATAGTTTTT
switch fluorescence ratio: 0.986 ± 0.055

AATATAAATA
switch fluorescence ratio: 1.019 ± 0.0072

AATATAGGGG
switch fluorescence ratio: 0.996 ± 0.017

AATATATGGA
switch fluorescence ratio: 1 ± 0.023

AATATATGGG
switch fluorescence ratio: 0.973 ± 0.021

AATATCACGG
switch fluorescence ratio: 1.05 ± 0.029

AATATCTGTG
switch fluorescence ratio: 1.01 ± 0.016

AATATGATAA
switch fluorescence ratio: 1.01 ± 0.053

AATATGATGT
switch fluorescence ratio: 1.05 ± 0.04

AATATGGGGT
switch fluorescence ratio: 1.01 ± 0.014

AATATGTATG
switch fluorescence ratio: 0.996 ± 0.024

AATATGTGAG
switch fluorescence ratio: 0.995 ± 0.028

AATATGTTGT
switch fluorescence ratio: 0.98 ± 0.037

AATATTAGCC
switch fluorescence ratio: 0.957 ± 0.02

AATATTATGG
switch fluorescence ratio: 1 ± 0.016

AATATTGGGG
switch fluorescence ratio: 0.981 ± 0.029

AATATTGGTG
switch fluorescence ratio: 1.0416 ± 0.001

AATATTGTCG
switch fluorescence ratio: 0.994 ± 0.034

AATATTGTCT
switch fluorescence ratio: 0.96 ± 0.013

AATATTTGGT
switch fluorescence ratio: 0.974 ± 0.019

AATCAAGGCG
switch fluorescence ratio: 1.03 ± 0.1

AATCAATTGT
switch fluorescence ratio: 0.978 ± 0.053

AATCAGAGTG
switch fluorescence ratio: 1.01 ± 0.03

AATCAGCGTC
switch fluorescence ratio: 0.986 ± 0.023

AATCAGGGGG
switch fluorescence ratio: 1.01 ± 0.04

AATCAGTGGA
switch fluorescence ratio: 0.974 ± 0.038

AATCATCGTG
switch fluorescence ratio: 0.9646 ± 0.0043

AATCATGGAG
switch fluorescence ratio: 0.9891 ± 0.004

AATCATGGT
switch fluorescence ratio: 0.978 ± 0.019

AATCATTATT
switch fluorescence ratio: 1.01 ± 0.017

AATCATTGTT
switch fluorescence ratio: 1.02 ± 0.026

AATCCAGGGC
switch fluorescence ratio: 1.05 ± 0.056

AATCCTGGAG
switch fluorescence ratio: 1.02 ± 0.011

AATCGAGGGG
switch fluorescence ratio: 0.991 ± 0.03

AATCGAGTTG
switch fluorescence ratio: 0.985 ± 0.013

AATCGATTCC
switch fluorescence ratio: 1.04 ± 0.034

AATCGCGGCT
switch fluorescence ratio: 1.01 ± 0.029

AATCGCGTTT
switch fluorescence ratio: 1.017 ± 0.0012

AATCGGGAGG
switch fluorescence ratio: 0.963 ± 0.062

AATCGGGCAG
switch fluorescence ratio: 1.04 ± 0.021

AATCGGGGCT
switch fluorescence ratio: 0.992 ± 0.013

AATCGGGGTT
switch fluorescence ratio: 0.948 ± 0.015

AATCGGGTCT
switch fluorescence ratio: 0.999 ± 0.015

AATCGTCTTT
switch fluorescence ratio: 0.961 ± 0.024
